Test results as given in US20260199504A1 (JIANGSU HENGRUI PHARMACEUTICALS, published 2026).

T1: human Nectin-4 His (Cat. #19771-H08H, Sino Biological) (human, UniProt Q96NY8 32-349)
T1 construct: Bought soluble antigen; the construct is probably only a part of it; also called human Nectin-4 His antigen; not shown: His tag
T1 sequence: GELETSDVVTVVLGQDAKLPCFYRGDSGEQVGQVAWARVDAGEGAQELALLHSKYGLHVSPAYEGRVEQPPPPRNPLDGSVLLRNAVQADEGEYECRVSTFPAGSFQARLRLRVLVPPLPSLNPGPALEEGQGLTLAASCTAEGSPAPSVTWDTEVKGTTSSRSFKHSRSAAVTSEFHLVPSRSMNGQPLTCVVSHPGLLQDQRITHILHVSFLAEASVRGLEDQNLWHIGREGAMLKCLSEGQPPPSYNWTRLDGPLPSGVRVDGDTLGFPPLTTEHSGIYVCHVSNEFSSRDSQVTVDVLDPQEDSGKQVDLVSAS

T2: human Nectin-4 on Nectin4-CHOK1 cells (CHO-K1 cell strain highly expressing Nectin-4) (human, UniProt Q96NY8 32-510)
T2 construct: also called Nectin4-CHOK1 clone 3
T2 sequence: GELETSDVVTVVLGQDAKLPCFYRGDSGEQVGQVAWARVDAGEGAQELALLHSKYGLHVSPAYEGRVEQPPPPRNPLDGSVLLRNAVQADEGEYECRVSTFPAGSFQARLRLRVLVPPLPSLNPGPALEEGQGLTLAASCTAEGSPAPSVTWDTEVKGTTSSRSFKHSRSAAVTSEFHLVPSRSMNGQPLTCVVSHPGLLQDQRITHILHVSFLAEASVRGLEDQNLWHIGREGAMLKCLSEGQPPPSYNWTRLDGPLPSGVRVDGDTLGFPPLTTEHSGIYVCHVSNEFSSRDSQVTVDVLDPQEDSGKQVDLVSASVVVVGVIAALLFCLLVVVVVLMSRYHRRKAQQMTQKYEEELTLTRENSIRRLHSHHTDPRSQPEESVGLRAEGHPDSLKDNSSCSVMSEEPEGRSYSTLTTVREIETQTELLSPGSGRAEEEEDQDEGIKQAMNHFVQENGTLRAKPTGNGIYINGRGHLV

T3: Nectin-4 expressed on T47D and MDA-MB-468 human breast cancer cells (human, UniProt Q96NY8 32-510)
T3 construct: whole, on cells; Nectin-4 native to the cell lines; also called Nectin-4-expressing cells
T3 sequence (looked up): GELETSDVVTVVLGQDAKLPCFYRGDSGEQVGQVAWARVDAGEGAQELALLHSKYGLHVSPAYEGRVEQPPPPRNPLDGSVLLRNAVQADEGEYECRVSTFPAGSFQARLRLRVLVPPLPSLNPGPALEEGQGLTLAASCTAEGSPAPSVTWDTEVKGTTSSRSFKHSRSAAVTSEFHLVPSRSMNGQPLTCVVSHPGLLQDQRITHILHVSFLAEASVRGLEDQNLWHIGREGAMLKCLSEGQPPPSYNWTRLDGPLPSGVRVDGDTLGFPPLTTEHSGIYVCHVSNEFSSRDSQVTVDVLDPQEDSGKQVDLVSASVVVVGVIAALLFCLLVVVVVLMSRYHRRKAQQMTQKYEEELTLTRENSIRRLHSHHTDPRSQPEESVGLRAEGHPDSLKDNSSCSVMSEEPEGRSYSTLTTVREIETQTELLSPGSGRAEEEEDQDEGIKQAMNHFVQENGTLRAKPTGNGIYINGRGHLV


How the values were obtained:
[1] = target: T1, human Nectin-4 His (Cat. #19771-H08H, …); experiment: SPR, Biacore T200; antibody captured on Protein A chip, human Nectin-4 His as analyte; 1:1 Langmuir model
Protocol: The anti-Nectin-4 antibody was analyzed by Biacore T200 (GE) for characteristic affinity and binding kinetics. A Protein A biosensor chip (Cat. #29127556, GE) was used to affinity-capture IgG antibodies, and then the human Nectin-4 His (Cat. #19771-H08H, Sino Biological) antigen that was diluted with HBS-EP buffer (pH 7.4) (Cat. #BR-1001-88, GE) to a series of concentrations was allowed to flow over the surface of the chip. The antigen-antibody binding kinetics was tracked for 3 min and the dissociation kinetics was tracked for 10 min. Reaction signals were detected in real time using a Biacore T200 instrument to obtain binding and dissociation curves. After dissociation was complete in each cycle, the biosensor chip was washed with 10 mM Gly-HCl pH 1.5 (Cat. #BR-1003-54, GE) for regeneration. The data obtained were analyzed with BIAevaluation software of GE using a 1:1 (Langmuir) binding model.

[2] = target: T2, human Nectin-4 on Nectin4-CHOK1 cells …; experiment: flow cytometry on Nectin4-CHOK1 cells
Protocol: (§1) After centrifugation and removal of the supernatant, the test antibody that was diluted with the FACS buffer to different concentrations was added at 50 μL/well. The plate was incubated in the dark in a 4° C. refrigerator for 1 h. The plate was washed 3 times with FACS buffer by centrifugation at 500 g, and Alexa Fluor 488 Goat anti-Human IgG (H+L) (invitrogen, A-11013) was then added in a working concentration. The plate was incubated in the dark in a 4° C. refrigerator for 40 min. The plate was washed 3 times with FACS buffer by centrifugation at 500 g and tested on a BD FACSCantoII flow cytometer for geometric mean fluorescence intensity, and the EC₅₀ values for the binding of the antibodies to Nectin-4-expressing cells were calculated.

[3] = target: T2, human Nectin-4 on Nectin4-CHOK1 cells …; experiment: cell-based or functional assay
[4] = target: T3, Nectin-4 expressed on T47D and …; experiment: flow cytometry on T47D cells
Protocol: as §1

[5] = target: T3, Nectin-4 expressed on T47D and …; experiment: flow cytometry on MDA-MB-468 cells
Protocol: as §1

| Kd [1] | koff [1] | kon [1] | EC50 [2] | IC50 (nM) (DT3C antibody endocytosis assay, Nectin4-CHOK1 cells) [3] | EC50 [4] | EC50 [5] | Binder |
| --- | --- | --- | --- | --- | --- | --- | --- |
| 5.15 nM | 0.00189 s⁻¹ | 367000 M⁻¹ s⁻¹ | 0.78 nM | 0.43 nM | 0.07 nM | 0.06 nM | NEC49 (fully human-derived anti-Nectin-4 antibody) (antibody, V domains shown, also called antibody NEC49) VH: EVQLLESGGGLVQPGGSLRLSCAASGFTFSSYAMSWVRQAPGKGLEWVSAIYSGGSTYYADSVKGRFTISRDNSKNTLYLQMNSLRAEDTAVYYCTRHGGDSGSWSYYYYGMDVWGQGTTVTVSS VL: not shown |
| 9.33 nM | 0.00661 s⁻¹ | 709000 M⁻¹ s⁻¹ | 0.94 nM | 0.5 nM | 0.26 nM | 0.23 nM | EV201 (positive control antibody; antibody of enfortumab vedotin) (antibody, human IgG1, kappa, V domains shown, also called control antibody EV201; control molecule) VH: EVQLVESGGGLVQPGGSLRLSCAASGFTFSSYNMNWVRQAPGKGLEWVSYISSSSSTIYYADSVKGRFTISRDNAKNSLSLQMNSLRDEDTAVYYCARAYYYGMDVWGQGTTVTVSS VL: DIQMTQSPSSVSASVGDRVTITCRASQGISGWLAWYQQKPGKAPKFLIYAASTLQSGVPSRFSGSGSGTDFTLTISSLQPEDFATYYCQQANSFPPTFGGGTKVEIKR |
